Results on eight molecules are retold here after patent publication US20260209334A1 (MAX PLANCK GESELLSCHAFT ZUR F RDERUNG DER WISSENSCHAFTEN E V, published 2026).

Positions count from the first letter of the chain named. Where two headings read alike, the source gives them in different places.

For test [1], the target named is T1, human IL-17A/F heterodimer, bacterially expressed construct (human, UniProt Q16552 40-155; Q96PD4 39-163, limits assumed).
T1 construct: IL-17A unit with N68D, IL-17F unit with N83D and C137S, both with GSEDS spacer; already in the entries
Description: BLI, VHH immobilized, IL-17 as analyte; apparent KD with avidity; µM as printed (Table 3 uses pM).

The target in test [2] is T2, human IL-17A homodimer, bacterially expressed construct (residues 40-155 with GSEDS spacer) (human, UniProt Q16552 40-155).
T2 chain: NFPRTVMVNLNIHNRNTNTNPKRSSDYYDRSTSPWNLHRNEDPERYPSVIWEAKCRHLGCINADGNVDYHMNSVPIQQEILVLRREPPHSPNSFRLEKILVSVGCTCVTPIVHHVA
The description is as above.

The target in test [3] is T3, human IL-17F homodimer, bacterially expressed construct (residues 39-163 with GSEGE linker) (human, UniProt Q96PD4 39-163).
T3 construct: also called IL-17F dimer
T3 chain: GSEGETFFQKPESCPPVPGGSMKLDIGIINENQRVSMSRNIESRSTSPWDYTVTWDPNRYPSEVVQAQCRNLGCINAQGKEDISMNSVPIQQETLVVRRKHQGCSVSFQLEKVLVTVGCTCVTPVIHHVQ
The test is described as above.

The target in test [4] is T1, human IL-17A/F heterodimer, bacterially …. Description: BLI, biotinylated VHH immobilized on streptavidin sensors, IL-17 as analyte (10, 20, 40 nM), mass transport fit; apparent value, avidity possible. (In general: In BLI a coated tip is dipped into the sample, and binding shifts an interference pattern.)
In test [5] the target is T2, human IL-17A homodimer, bacterially …. The test is described as above.
Test [6] addresses T3, human IL-17F homodimer, bacterially …. The description is as above.
For test [7], the target named is T4, human IL-17A with C-terminal Avi-tag, biotinylated, immobilized on BLI sensors (human, UniProt Q16552 24-155, biotin on the C-terminal Avi-tag (BirA)).
T4 construct: also called biotinylated IL-17A; not shown: C-terminal Avi-tag
Description: BLI, biotinylated IL-17A immobilized on streptavidin sensors, monovalent VHH as analyte (25, 50, 100 nM), 2:1 heterogenous fit, high affinity component.

Test [8] deals with T5, human IL-17F with C-terminal Avi-tag, biotinylated, immobilized on BLI sensors (human, UniProt Q96PD4 31-163, biotin on the C-terminal Avi-tag (BirA)).
T5 construct: also called biotinylated IL-17F; not shown: C-terminal Avi-tag
T5 sequence: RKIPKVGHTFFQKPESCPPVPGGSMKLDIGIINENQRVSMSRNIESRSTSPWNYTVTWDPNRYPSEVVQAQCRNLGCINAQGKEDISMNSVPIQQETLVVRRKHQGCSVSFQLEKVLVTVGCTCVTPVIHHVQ
Description: BLI, biotinylated IL-17F immobilized on streptavidin sensors, monovalent VHH as analyte (20, 100 nM), 2:1 heterogenous fit, low affinity component.

In test [9] the target is T5, human IL-17F with C-terminal Avi-tag, …. Description: BLI, biotinylated IL-17F immobilized, monovalent VHH as analyte; 2:1 heterogenous model, high affinity component.
The target in test [10] is T4, human IL-17A with C-terminal Avi-tag, …. Description: BLI, biotinylated IL-17A immobilized, monovalent VHH as analyte; 2:1 heterogenous model, high affinity component.
Test [11] deals with T6, recombinant human IL-17F (produced in HEK cells, Proteintech HZ-1116) (human, UniProt Q96PD4 31-163).
T6 sequence (looked up): T5 sequence
Description: cell-based or functional assay.

Test [12] addresses recombinant human IL-17A/F (produced in CHO cells, R&D Systems 5837-IL) (human, UniProt Q16552 24-155; Q96PD4 31-163, limits assumed). Description: cell-based or functional assay.
The target of test [13] is recombinant human IL-17A (produced in HEK cells, Proteintech HZ-1113) (human, UniProt Q16552 24-155). Description: cell-based or functional assay.
Test [14] has as its target T4, human IL-17A with C-terminal Avi-tag, …. Description: BLI, biotinylated IL-17A immobilized on streptavidin sensors, monovalent VHH as analyte (20, 100 nM), 2:1 heterogenous fit, low affinity component.
Test [15] concerns the target T1, human IL-17A/F heterodimer, bacterially …. Description: BLI, biotinylated VHH immobilized on streptavidin sensors, IL-17 as analyte (10, 20, 40 nM), mass transport fit; apparent value, avidity possible. This is another data set of the same source.
Test [16] deals with T2, human IL-17A homodimer, bacterially …. The test is described as above.
The target of test [17] is T3, human IL-17F homodimer, bacterially …. The description is as above.

Sequence of recombinant human IL-17A/F (produced in CHO cells, R&D Systems 5837-IL) (Q16552 24-155 limits assumed, chain 1 of 2, one chain of several): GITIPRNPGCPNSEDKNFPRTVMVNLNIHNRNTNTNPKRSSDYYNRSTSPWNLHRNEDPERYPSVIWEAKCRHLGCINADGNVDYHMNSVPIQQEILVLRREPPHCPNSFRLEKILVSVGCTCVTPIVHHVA
Sequence of recombinant human IL-17A (produced in HEK cells, Proteintech HZ-1113) (Q16552 24-155 limits assumed): as the sequence (Q16552 24-155 limits assumed, chain 1 of 2, one chain of several) above

B1: Bm17B02 with C-terminal Avi-Biotin-tag, biotinylated (VHH)
VHH: QVQLVESGGGLVNTGGSLRLSCVVSGHTSEISAMGWYRQAPGKQRELVALITSRSGDTHYSDSVKGRFSISRDNAKNTMYLQMNSLNPDDTAVYYCVHNEPGHLYMAQGTQVTVSS
modifications: biotin on the C-terminal Avi-tag (BirA)
notes: not shown: C-terminal Avi-Biotin-tag
Consider B1, for which the Kd in test [1] is at most 20000 nM; in test [2], at most 20000 nM; in [3], at most 20000 nM; in test [4] it was at most 0.01 nM; in [5], at most 0.01 nM; in test [6], 0.02 nM. Moreover, the koff in test [4] is at most 1e-07 s⁻¹; in test [5], at most 1e-07 s⁻¹; in test [6], 5.4e-05 s⁻¹. The kon in [4] was 1.4e+06 M⁻¹ s⁻¹; in test [5] it was 220000 M⁻¹ s⁻¹; in [6], 750000 M⁻¹ s⁻¹.

B2: Bm17B02 (VHH)
VHH: B1 VHH
notes: Class B, first generation; For the crystal it was made with a His14-ScSUMO tag that was cleaved off
In test [7], B2 showed a Kd of 0.7 nM.

B3: Re42F08 with C-terminal Avi-Biotin-tag, biotinylated (VHH)
VHH: B1 VHH with N13K, T14A
modifications: biotin on the C-terminal Avi-tag (BirA)
notes: as for B1
On to B3, for which the Kd in test [1] was at most 20000 nM; in test [2], at most 20000 nM; in [3], at most 20000 nM; in test [4], at most 0.01 nM; in [5], at most 0.01 nM; in test [6], 0.02 nM. The koff in test [4], in test [5] and in [6] was at most 1e-07 s⁻¹ in each case. Also, the values for the kon in test [4], in test [5] and in [6] were 510000 M⁻¹ s⁻¹, 160000 M⁻¹ s⁻¹ and 500000 M⁻¹ s⁻¹, respectively.

B4: Bm44B04 (VHH)
VHH: QVQLVESGGGLVRTGGSLRLSCSVSGDISSQSAMGWYRQVPGRQRELVAMIHTTKGDTYYADSVKGRFTISRINANNTIYLQMNNLKPEDTAIYYCTHNEPGDLYMGQGTQVTVSS
notes: Class B, second generation
For the molecule B4, the values for the KD2 in test [8] and in [14] were 20 nM and 25 nM, respectively. Also, the Kd in test [9] was determined as 0.35 nM; in test [10], 0.6 nM. Moreover, the “Neutralization potency, ranking from 1 = the best to 4 (HEK-Blue IL-17 reporter cells)” value (from here on “Neutralization potency, ranking”) in [11] stood at 2 rank; in [12] it was 1 rank; in test [13] it was 2 rank.

B5: Bm42A09 (VHH)
VHH: B4 VHH with Q111L
notes: Class B, second generation
Consider B5, for which the Kd was at most 0.01 nM in test [9] and 0.8 nM in test [10]. In addition, the “Neutralization potency, ranking” value in [11] turned out to be 1 rank; in test [12] it was 1 rank; in [13] it was 2 rank. The KD2 in test [14] was determined as 300 nM.

B6: Bm44G07 (VHH)
VHH: B4 VHH with E6Q, R13Q, G66D, Y80H
notes: Class B, second generation
As for B6, the KD2 was 40 nM in [8] and 120 nM in test [14]. In addition, the Kd turned out to be 1 nM in test [9] and 3 nM in test [10]. For the same molecule, the “Neutralization potency, ranking” value in test [11] was found to be 1 rank; in test [12], 4 rank; in [13], 3 rank.

B7: Bm18F11 with C-terminal Avi-Biotin-tag, biotinylated (VHH)
VHH: QVQLVESGGDLVQAGGSLRLSCAASGLTGSSYAMGWFRQAPGKEREFVAAISWISGDTKYTDSVKGRFTMSRDNAKKQVYLEMNSLKPEDTAVYYCNDMPYGLDTRMDEYVYWGQGTQVTVSS
modifications: biotin on the C-terminal Avi-tag (BirA)
notes: as for B1
With B7, the Kd in test [1] was at most 20000 nM; in [2] it was at most 20000 nM; in [3], at most 20000 nM; in test [15], at most 0.01 nM; in test [16] it was at most 0.01 nM; in test [17], at most 0.01 nM. Also, the koff in test [15], in test [16] and in test [17] was at most 1e-07 s⁻¹ in each case. The results for the kon in [15], in test [16] and in test [17] were 280000 M⁻¹ s⁻¹, 95000 M⁻¹ s⁻¹ and 150000 M⁻¹ s⁻¹, respectively.

B8: Bm18B05 with C-terminal Avi-Biotin-tag, biotinylated (VHH)
VHH: QVQLVESGGGLVQPGGSLRLSCAVSGRTFSSYAMGWFRRPPGKEREFVAAISWSGGDTKYADFVTDRFTISRDDAKSTVYLQMNSLKPEDTAVYYCNDMPYGLDTRMDEYEYWGQGTQVTVSS
modifications: biotin on the C-terminal Avi-tag (BirA)
notes: as for B1
Consider B8, for which the Kd is at most 20000 nM in [1]; at most 20000 nM in test [2]; at most 20000 nM in test [3]; at most 0.01 nM in [15]; at most 0.01 nM in test [16]; at most 0.01 nM in test [17]. Further, the koff in test [15], in [16] and in [17] was at most 1e-07 s⁻¹ in each case. Also, the kon in test [15] was found to be 120000 M⁻¹ s⁻¹; in test [16], 260000 M⁻¹ s⁻¹; in test [17] it was 86000 M⁻¹ s⁻¹.

What is called koff is the first-order rate constant of dissociation. For orientation: kon means the second-order rate constant of association.
